These results are taken from US20210388087A1.

For the assay, the target named is Human CD137 ECD (human). In words: single mutant vs template dBBDu183H.

Where a chain is given by its changes, count along the chain named. In names and notes the source's numbering stands.

Chain of Human CD137 ECD (human) (chain, as listed by the source limits assumed): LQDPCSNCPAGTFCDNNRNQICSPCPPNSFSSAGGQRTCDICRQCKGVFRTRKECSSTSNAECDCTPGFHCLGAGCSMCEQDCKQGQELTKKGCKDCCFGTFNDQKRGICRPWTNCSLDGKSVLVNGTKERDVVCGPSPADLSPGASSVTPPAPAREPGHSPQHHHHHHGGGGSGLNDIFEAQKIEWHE

B1: H183/L072 VH N53L (antibody, name in Kabat numbering, V domains shown)
VH: QVQLVESGGGLVQPGRSLRLSCAASGFTFSNAWMHWVRQAPGKGLEWVAQIKDKGLAYAAYYAPSVKGRFTISRDDSKNSIYLQMNSLKTEDTAVYYCHYVHYASASTVLPAFGVDAWGQGTTVTVSS
VL: DIVMTQSPLSLPVTPGEPASISCQASQELVHMNRNTYLHWYQQKPGQAPRLLIYKVSNRFPGVPDRFSGSGSGTDFTLKISRVEAEDVGVYYCAQGTSVPFTFGQGTKLEIK
With B1, the fold change of affinity was 0 fold.

B2: H183/L072 VH H35P (antibody, name in Kabat numbering, V domains shown)
VH: B1 VH with H35P, L56N
VL: B1 VL
With B2, the fold change of affinity was 0 fold.

B3: H183/L072 VH W33V (antibody, name in Kabat numbering, V domains shown)
VH: B1 VH with W33V, L56N
VL: B1 VL
For B3, the fold change of affinity turned out to be 0 fold.

B4: H183/L072 VH A57L (antibody, name in Kabat numbering, V domains shown)
VH: B1 VH with L56N, A60L
VL: B1 VL
Turning to B4, the fold change of affinity was 0 fold.

B5: H183/L072 VH W33G (antibody, name in Kabat numbering, V domains shown)
VH: B1 VH with W33G, L56N
VL: B1 VL
Take B5: the fold change of affinity worked out at 0 fold.

B6: H183/L072 VH W33N (antibody, name in Kabat numbering, V domains shown)
VH: B1 VH with W33N, L56N
VL: B1 VL
Regarding B6, the fold change of affinity came out at 0 fold.

B7: H183/L072 VH W33Q (antibody, name in Kabat numbering, V domains shown)
VH: B1 VH with W33Q, L56N
VL: B1 VL
Consider B7, for which the fold change of affinity came to 0 fold.

B8: H183/L072 VH G26V (antibody, name in Kabat numbering, V domains shown)
VH: B1 VH with G26V, L56N
VL: B1 VL
B8: the fold change of affinity was found to be 0 fold.

B9: H183/L072 VH Y55V (antibody, name in Kabat numbering, V domains shown)
VH: B1 VH with L56N, Y58V
VL: B1 VL
Turning to B9, the fold change of affinity came to 0 fold.

B10: H183/L072 VH Y55P (antibody, name in Kabat numbering, V domains shown)
VH: B1 VH with L56N, Y58P
VL: B1 VL
Turning to B10, the fold change of affinity stood at 0 fold.

B11: H183/L072 VH N53P (antibody, name in Kabat numbering, V domains shown)
VH: B1 VH with L56P
VL: B1 VL
For B11, the fold change of affinity turned out to be 0 fold.

B12: H183/L072 VH A54P (antibody, name in Kabat numbering, V domains shown)
VH: B1 VH with L56N, A57P
VL: B1 VL
As for B12, the fold change of affinity is 0 fold.

B13: H183/L072 VH Q50G (antibody, name in Kabat numbering, V domains shown)
VH: B1 VH with Q50G, L56N
VL: B1 VL
Take B13: the fold change of affinity was found to be 0 fold.

B14: H183/L072 VH D52aV (antibody, name in Kabat numbering, V domains shown)
VH: B1 VH with D53V, L56N
VL: B1 VL
Take B14: the fold change of affinity worked out at 0 fold.

B15: H183/L072 VH A32P (antibody, name in Kabat numbering, V domains shown)
VH: B1 VH with A32P, L56N
VL: B1 VL
As for B15, the fold change of affinity was determined as 0 fold.

B16: H183/L072 VH M34N (antibody, name in Kabat numbering, V domains shown)
VH: B1 VH with M34N, L56N
VL: B1 VL
B16: the fold change of affinity worked out at 0 fold.

B17: H183/L072 VH D52aP (antibody, name in Kabat numbering, V domains shown)
VH: B1 VH with D53P, L56N
VL: B1 VL
As for B17, the fold change of affinity is 0 fold.

B18: H183/L072 VH F29Q (antibody, name in Kabat numbering, V domains shown)
VH: B1 VH with F29Q, L56N
VL: B1 VL
In the case of B18, the fold change of affinity is 0 fold.

B19: H183/L072 VH I51P (antibody, name in Kabat numbering, V domains shown)
VH: B1 VH with I51P, L56N
VL: B1 VL
With B19, the fold change of affinity stood at 0 fold.

B20: H183/L072 VH M34G (antibody, name in Kabat numbering, V domains shown)
VH: B1 VH with M34G, L56N
VL: B1 VL
Consider B20, for which the fold change of affinity amounted to 0 fold.

B21: H183/L072 VH I51Q (antibody, name in Kabat numbering, V domains shown)
VH: B1 VH with I51Q, L56N
VL: B1 VL
On to B21, for which the fold change of affinity is 0 fold.

B22: H183/L072 VH Q50P (antibody, name in Kabat numbering, V domains shown)
VH: B1 VH with Q50P, L56N
VL: B1 VL
Take B22: the fold change of affinity worked out at 0 fold.

B23: H183/L072 VH D52aG (antibody, name in Kabat numbering, V domains shown)
VH: B1 VH with D53G, L56N
VL: B1 VL
For B23, the fold change of affinity is 0 fold.

B24: H183/L072 VH K52G (antibody, name in Kabat numbering, V domains shown)
VH: B1 VH with K52G, L56N
VL: B1 VL
For the molecule B24, the fold change of affinity came out at 0 fold.

B25: H183/L072 VH N53Q (antibody, name in Kabat numbering, V domains shown)
VH: B1 VH with L56Q
VL: B1 VL
In the case of B25, the fold change of affinity was determined as 0 fold.

B26: H183/L072 VH T28S (antibody, name in Kabat numbering, V domains shown)
VH: B1 VH with T28S, L56N
VL: B1 VL
On to B26, for which the fold change of affinity came out at 0 fold.

B27: H183/L072 VH F29G (antibody, name in Kabat numbering, V domains shown)
VH: B1 VH with F29G, L56N
VL: B1 VL
As for B27, the fold change of affinity was 0 fold.

B28: H183/L072 VH N31M (antibody, name in Kabat numbering, V domains shown)
VH: B1 VH with N31M, L56N
VL: B1 VL
Take B28: the fold change of affinity came out at 0 fold.

B29: H183/L072 VH D52aQ (antibody, name in Kabat numbering, V domains shown)
VH: B1 VH with D53Q, L56N
VL: B1 VL
As to B29, the fold change of affinity worked out at 0 fold.

B30: H183/L072 VH K52V (antibody, name in Kabat numbering, V domains shown)
VH: B1 VH with K52V, L56N
VL: B1 VL
As for B30, the fold change of affinity turned out to be 0 fold.

B31: H183/L072 VH F29N (antibody, name in Kabat numbering, V domains shown)
VH: B1 VH with F29N, L56N
VL: B1 VL
As to B31, the fold change of affinity turned out to be 0 fold.

B32: H183/L072 VH K52P (antibody, name in Kabat numbering, V domains shown)
VH: B1 VH with K52P, L56N
VL: B1 VL
Turning to B32, the fold change of affinity came to 0 fold.

B33: H183/L072 VH D52aM (antibody, name in Kabat numbering, V domains shown)
VH: B1 VH with D53M, L56N
VL: B1 VL
Turning to B33, the fold change of affinity came to 0 fold.

B34: H183/L072 VH M34Q (antibody, name in Kabat numbering, V domains shown)
VH: B1 VH with M34Q, L56N
VL: B1 VL
On to B34, for which the fold change of affinity came out at 0 fold.

B35: H183/L072 VH T28N (antibody, name in Kabat numbering, V domains shown)
VH: B1 VH with T28N, L56N
VL: B1 VL
Take B35: the fold change of affinity turned out to be 0 fold.

B36: H183/L072 VH H35G (antibody, name in Kabat numbering, V domains shown)
VH: B1 VH with H35G, L56N
VL: B1 VL
In the case of B36, the fold change of affinity is 0 fold.

B37: H183/L072 VH N53M (antibody, name in Kabat numbering, V domains shown)
VH: B1 VH with L56M
VL: B1 VL
With B37, the fold change of affinity came to 0 fold.

B38: H183/L072 VH D52aN (antibody, name in Kabat numbering, V domains shown)
VH: B1 VH with D53N, L56N
VL: B1 VL
For B38, the fold change of affinity is 0 fold.

B39: H183/L072 VH W33M (antibody, name in Kabat numbering, V domains shown)
VH: B1 VH with W33M, L56N
VL: B1 VL
Turning to B39, the fold change of affinity is 0 fold.

B40: H183/L072 VH H35M (antibody, name in Kabat numbering, V domains shown)
VH: B1 VH with H35M, L56N
VL: B1 VL
Consider B40, for which the fold change of affinity came out at 0 fold.

B41: H183/L072 VH N53V (antibody, name in Kabat numbering, V domains shown)
VH: B1 VH with L56V
VL: B1 VL
On to B41, for which the fold change of affinity came out at 0 fold.

B42: H183/L072 VH H35Q (antibody, name in Kabat numbering, V domains shown)
VH: B1 VH with H35Q, L56N
VL: B1 VL
As to B42, the fold change of affinity stood at 0 fold.

B43: H183/L072 VH N53G (antibody, name in Kabat numbering, V domains shown)
VH: B1 VH with L56G
VL: B1 VL
On to B43, for which the fold change of affinity stood at 0 fold.

B44: H183/L072 VH W33P (antibody, name in Kabat numbering, V domains shown)
VH: B1 VH with W33P, L56N
VL: B1 VL
B44: the fold change of affinity stood at 0 fold.
